Broadly, the Kd is the equilibrium constant for the complex coming apart. High values mean a looser complex, low ones a tighter complex.

The assay addresses Replication Protein A (RPA) heterotrimer from Pyrococcus abyssi, wild type (Pyrococcus abyssi). Put plainly: BLI; RPA or RPA^ΔWH nucleoprotein filaments on a 3'-TEG-biotin 50-nt ssDNA held on streptavidin sensors; PriSL (1.56-100 nM) or PolD (15.62-1000 nM) in solution; steady-state analysis; 25 °C, buffer E with 0.2 mg/ml BSA. On the technique in general: BLI is a label-free optical method that tracks binding on a fibre tip over time.

B1: DNA primase PriSL (PriS-PriL heterodimer) from P. abyssi, in solution (complex)
chain 1: MLLREVTKEERKEFYSNEWNAKQIPDFILQNLDKREFGFDHTGEGPSDRKNSYTDVRDLEDYIKATAPYAVYSSVAFYEKPQEMEGWLGAELVFDIDAKDLPLRRCNHEPGKVCPICLNDAKEIARDTLIVLKEELGFEDVHVVYSGRGYHIRVMDGWALSLDSKSRERILSFISASEIEDHSEFRKMLLERRGWFVLNHGYPRVFRLRFGYFILRVKVEHLINFGIRKNIAKRILDNKETIYEEFVRKGILAAFPDGVGIESLAKLFALSTRFSKAYFDGRVTVDLKRILRLPSTLHSKVGLIAKYIGNNERDVMRFNPFKHAVPKFRRKEVKEEYKRFLEENF
chain 2: MLDPFSEKAKELLKEFGSINDFLNSIPRIVDVEEVIERVKIASDRKLLEGFVDIEDIKDLAQFYALLGALSYSPYGLELELVKKANILLYSERIRREKEIRPEEISLRINKAIEFPIDDLKKIERVFGKLPEYTIHLAEFLDLIPGERLSEYYIYNGNVYLRKEDLIKVWMKAFERNIEKSVNMLYEIRDELPGFFREVLGGIKEVAEQEFGKSGEVKAGTLRPDLFPPCVKNALKGVPQGLRNYAITVLLTSFLSYARICPNPPRRNVRVKDCIDDIRIITDEILPLIIEAANRCSPPLFEDQPNEIKNIWYHLGFGYTANPKLEDSGNSTWYFPPNCDKIRANAPQLCTPDKHCKYVRNPLTYYLRRLYLEGRKNASKGGNERGEKRVLQQ
With B1, the Kd worked out at 24 nM. In other words, the double-digit nanomolar range.

The values are drawn from paper PMC11686378.
